We go through three molecules from patent US20220389111A1 (SHANGHAI EPIMAB BIOTHERAPEUTICS, published 2022).

Assay [1] addresses T1, human CD39 on the cell membrane (CHO-K1-human CD39 stable cell line); SK-MEL-28 melanoma cells; human CD4+ T … (human, UniProt P49961 1-510).
T1 construct: Overexpressed on CHO-K1 cells or endogenous on SK-MEL-28 / T cells; the assay field says which cells; also called huCD39; CHO-K1-huCD39
T1 sequence: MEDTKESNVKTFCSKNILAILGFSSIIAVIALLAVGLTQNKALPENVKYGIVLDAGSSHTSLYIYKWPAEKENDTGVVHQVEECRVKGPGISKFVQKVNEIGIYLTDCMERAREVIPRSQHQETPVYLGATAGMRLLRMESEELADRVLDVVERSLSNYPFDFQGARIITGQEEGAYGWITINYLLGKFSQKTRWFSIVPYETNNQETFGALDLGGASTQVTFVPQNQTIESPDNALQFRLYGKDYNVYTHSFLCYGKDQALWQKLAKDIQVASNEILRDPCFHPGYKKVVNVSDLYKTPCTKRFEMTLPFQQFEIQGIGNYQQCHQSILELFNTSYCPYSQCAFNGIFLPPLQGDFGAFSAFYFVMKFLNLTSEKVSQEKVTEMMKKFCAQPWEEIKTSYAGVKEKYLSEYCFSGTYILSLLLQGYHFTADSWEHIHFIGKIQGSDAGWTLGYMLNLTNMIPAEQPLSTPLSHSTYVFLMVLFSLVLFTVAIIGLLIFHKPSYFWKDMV
Put plainly: FACS on CHO-K1-human CD39 cells. As to the method:
(§1) The ability of the purified antibodies to bind to cell membrane human CD39, cynomolgus monkey CD39, or mouse CD39 was determined by FACS analysis. CHO-K1 cells stably transfected to overexpress human CD39, cynomolgus monkey CD39, or mouse CD39 (CHO-K1-huCD39 cells, CHO-K1-cyCD39 cells, and CHOK1-muCD39 cells) were generated for use in this assay. Briefly, SK-MEL-28 melanoma cells (ATCC) or CD39 overexpressing stable CHO cell lines were resuspended in PBS containing 2% FBS (FACS buffer) and seeded at 1-5×10⁵ cells/well into U-bottomed plates. Anti-CD39 mAbs or isotype control antibodies diluted in FACS buffer were added to the wells and incubated for 1 hour at 4° C. After washing with FACS buffer, 1:1000 diluted Fluorescence-labeled secondary antibody (Life Technologies/ThermoFisher Scientific) were added and incubated for 30 min. at 4° C. Unbound secondary mAb was removed by washing with FACS buffer three times, and the samples were then read on a FACS instrument. The data were processed by GraphPad software.

Assay [2] addresses T2, cynomolgus monkey CD39 on CHO-K1 cells (cynomolgus monkey, UniProt A0A7N9DGH8 1-510).
T2 construct: whole, on cells; also called CHO-K1-cyCD39; CHO-K1-cyno CD39
T2 sequence: T1 sequence with V47I, F94Y, V221I, I230T, I329V, K368N, A391S, F489V, T490I
Put plainly: FACS on CHO-K1-cyno CD39 cells. The method, then:
as §1

The target in assay [3] is T1, human CD39 on the cell membrane …. Put plainly: cell-based or functional assay.
Assay [4] has the same target. The experiment in a line: cell-based or functional assay. The source holds these as a separate data set.
Assay [5] has as its target T3, huCD39-ECD-His (human, UniProt P49961 38-478).
T3 construct: also called C-terminally hexahistidine-tagged human CD39 extracellular domain
T3 sequence: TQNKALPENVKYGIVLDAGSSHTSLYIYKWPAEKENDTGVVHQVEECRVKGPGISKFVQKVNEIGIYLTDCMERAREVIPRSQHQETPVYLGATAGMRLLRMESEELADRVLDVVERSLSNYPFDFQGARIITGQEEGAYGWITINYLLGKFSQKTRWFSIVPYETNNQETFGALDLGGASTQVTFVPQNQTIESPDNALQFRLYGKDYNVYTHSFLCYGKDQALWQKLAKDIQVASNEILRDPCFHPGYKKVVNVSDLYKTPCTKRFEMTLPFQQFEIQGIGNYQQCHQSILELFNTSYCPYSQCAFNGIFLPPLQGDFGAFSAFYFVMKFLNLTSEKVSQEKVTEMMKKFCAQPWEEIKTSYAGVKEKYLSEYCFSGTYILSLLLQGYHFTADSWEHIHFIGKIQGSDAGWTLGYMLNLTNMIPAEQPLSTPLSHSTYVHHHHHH
The experiment in a line: BLI (Octet RED96), antibody captured on AMC biosensor, antigen in solution. As to the method:
Anti-CD39 antibodies were characterized for affinities and binding kinetics using the Octet®RED96 biolayer interferometry system (Pall FortéBio LLC). Purified anti-CD39 antibodies were captured by Anti-Mouse IgG Fc Capture (AMC) biosensors or Anti-Human IgG Fc Capture (AHC) biosensors at a concentration of 100 nM for 30 seconds. Biosensors were then dipped into running buffer (1X pH7.2 PBS, 0.05% Tween 20, 0.1% BSA) for 60 seconds to check baseline. Binding was measured by dipping sensors into purified recombinant human CD39 protein, 3-fold serial diluted from 200 nM, for 120 seconds. Dissociation was followed by dipping sensors into running buffer for 600 seconds. The association and dissociation curves were fitted to a 1:1 Langmuir binding model using Fortebio Data Analysis software (Pall FortéBio LLC).
Background: Biolayer interferometry detects binding as a change in optical thickness at a sensor tip.

Assay [6] concerns the target T3, huCD39-ECD-His. The experiment in a line: SPR (Biacore T200), antibody captured by anti-mouse IgG Fc, antigen in solution. As to the method:
The binding kinetics of purified antibodies was determined by surface plasmon resonance-based measurements using a Biacore T200 instrument (GE Healthcare). Briefly, goat anti-mouse IgG Fc polyclonal antibody (Genway) was directly immobilized across a biosensor chip, and antibody samples were injected over reaction matrices at a flow rate of 5 μl/min. The association and dissociation rate constants, kₒₙ (M⁻¹s⁻¹) and koff(s⁻¹), respectively, were determined by making kinetic binding measurements of anti-CD39 antibody capture at five different concentrations of a recombinant human or mouse CD39 target protein (huCD39-ECD-His or muCD39-ECD-His). The equilibrium dissociation constant KD (M) of the reaction between antibodies and related target proteins was then calculated from the kinetic rate constants using the formula: KD=koff/kₒₙ. Binding affinities for murine anti-human CD39 antibodies mAb635 and mAb638 are shown in Table 9; binding affinity for rat anti-mouse CD39 antibody mAb605 is shown in Table 10.
(In general: In SPR one partner is held on a chip, and binding of the other changes the refractive index at the surface.)

By EC50 is commonly meant the concentration that produces a half-maximal response. By Kd is commonly meant the equilibrium constant for the complex coming apart. In general, koff refers to the rate constant with which the complex falls apart. By kon is commonly meant the second-order rate constant of association.

Substitutions are numbered along the chain they refer to.

B1: mAb636 (antibody, V domains shown)
VH: QVQLQQPGTELVMPGASVTLSCKASGYSFISYWMHWVKQRPGQGLEWIGEIDPSDDYTNYNQNFKGKATLTVDRSSSTAYMQLNSLTSEDSAVYYCAREENGIYYYNKGYLDVWGTGTTVTVSS
VL: DIVMTQTAFSNPVTLGTSASISCRSSKSLLHSNGITYLYWYLQKPGQSPQVLIYQMSNLASGVPDRFSCSGSGTDFTLRITRVEAEDVGFYYCAQNLELPYTFGGGTKLEMK
notes: mouse anti-human CD39 hybridoma mAb, IgG2a, κ
With B1, the EC50 in assay [1] was determined as 12.7 nM; in assay [2], 10.6 nM.

B2: mAb629 (antibody, V domains shown)
VH: QVQLKQSGPGLVRPSQSLSITCTVSGFSLTRFGIHWVRQSPGKGLEWLGVIWGGGSTDYDAGFISRLTITKDHSKSQVLFKINSLEADDTAMYYCATKDDDYLEAWFAHWGQGTLVTVSA
VL: NIVMTQSPKSVSMSVGERVTLSCKASENVGTYVSWYQQKSERSPRLLIYGASSRYTGVPDRFTGSGSATDFTLTISSVQAEDLADYHCGQSYSYPYTFGGGTKLEIK
notes: as for B1
For B2, the “IC50 (read off the curve), cell-surface huCD39 ATPase activity” value in assay [3] was about 0.07 nM. The EC50 worked out at 1.92 nM in assay [1] and 2.18 nM in assay [2].

B3: mAb638 (antibody, V domains shown)
VH: QVQLQQPGTELVKPGASVKLSCKASGYTFTSFWMHWVKQRPGQGLEWIGNINPRNGATKYNEKFRSKVTLTADKTSSTAYMHLSSLTSEDSAVYYCAREDYDEIYYAMDSWGQGTSVTVSS
VL: QNVLTQSPAIMSASPGEKVTMTCSASSSVIYMYWFQQKPGSSPRVLIYDTSNLASGVPARFSGSGSGTSYSLTISRMEAEDAATYYCQQWSTYPLTFGAGTKLELK
notes: mouse anti-human CD39 hybridoma mAb, IgG1, κ
With B3, the “IC50 (read off the curve), cell-surface huCD39 ATPase activity” value in assay [3] was about 0.4 nM. The molecule also registered an EC50 in assay [1] of 3.34 nM. Besides, the “IC50 (read off the curve), cell-surface hCD39 ATPase activity” value in assay [4] is about 0.4 nM. In the assay with huCD39-ECD-His [5], this molecule came in with a Kd of 2.27 nM, a koff of 0.000426 s⁻¹ and a kon of 188000 M⁻¹ s⁻¹. Besides, the response in assay [2] was half-maximal at 19.2 nM (EC50). In the assay with huCD39-ECD-His [6], this molecule registered a Kd of 0.203 nM, a koff of 0.000117 s⁻¹ and a kon of 574000 M⁻¹ s⁻¹.
